Test results published in the Human Domainome abundance scans (Beltran et al. 2025).
± gives the uncertainty stated by the source.

Assay: abundance fitness (aPCA) (normalised: wild type 0, dead -1); higher = more abundant; growth selection in yeast, the domain comes from the species named
Conditions: Homo sapiens
In the case of Gamma-crystallin D G100C, P07320, the abundance fitness is reported as -0.117 ± 0.096.
In the case of Gamma-crystallin D G100D, P07320, the abundance fitness is reported as 0.069 ± 0.11.
For Gamma-crystallin D G100E, P07320, the abundance fitness was -0.069 ± 0.085.
Gamma-crystallin D G100F, P07320 gave an abundance fitness of -0.779 ± 0.17.
Gamma-crystallin D G100H, P07320 showed an abundance fitness of -0.561 ± 0.28.
In the case of Gamma-crystallin D G100I, P07320, the abundance fitness is reported as -0.826 ± 0.36.
Substance Gamma-crystallin D G100K, P07320 has an abundance fitness of -0.325 ± 0.17.
In the case of Gamma-crystallin D G100L, P07320, the abundance fitness is reported as -0.266 ± 0.075.
With Gamma-crystallin D G100M, P07320 the abundance fitness was -0.356 ± 0.14.
With Gamma-crystallin D G100Q, P07320 the abundance fitness was -0.565 ± 0.17.
For Gamma-crystallin D G100R, P07320, the abundance fitness was -0.437 ± 0.073.
Work on Gamma-crystallin D G100T, P07320 yielded an abundance fitness of -0.889 ± 0.45.
For Gamma-crystallin D G100V, P07320, the abundance fitness was -1.13 ± 0.16.
With Gamma-crystallin D G100Y, P07320 the abundance fitness was -0.839 ± 0.32.
In the case of Gamma-crystallin D I103E, P07320, the abundance fitness is reported as 0.037 ± 0.13.
Gamma-crystallin D I103H, P07320 gave an abundance fitness of -0.186 ± 0.088.
Gamma-crystallin D I103Q, P07320 showed an abundance fitness of -0.03 ± 0.13.
Work on Gamma-crystallin D I103R, P07320 yielded an abundance fitness of 0.055 ± 0.064.
Gamma-crystallin D L112E, P07320 showed an abundance fitness of -0.383 ± 0.045.
